Measurements taken from patent publication US20150283219A1 (INVECTYS, published 2015).

Assays:
Experiment in all cases: competitive ELISA, mean of three experiments
HLA-DRB3 = HLA-DRB3 (human)
HLA-DR4 = HLA-DR4 (human)
HLA-DR7 = HLA-DR7 (human)
HLA-DR15 = HLA-DR15 (human)
HLA-DR1 = HLA-DR1 (human)
HLA-DRB5 = HLA-DRB5 (human)
HLA-DRB4 = HLA-DRB4 (human)

Binder | relative affinity (RA, IC50 of UCP / IC50 of reference peptide) (HLA-DRB3) [ratio] | relative affinity (RA, IC50 of UCP / IC50 of reference peptide) (HLA-DR4) [ratio] | relative affinity (RA, IC50 of UCP / IC50 of reference peptide) (HLA-DR7) [ratio] | relative affinity (RA, IC50 of UCP / IC50 of reference peptide) (HLA-DR15) [ratio] | relative affinity (RA, IC50 of UCP / IC50 of reference peptide) (HLA-DR1) [ratio] | relative affinity (RA, IC50 of UCP / IC50 of reference peptide) (HLA-DRB5) [ratio] | relative affinity (RA, IC50 of UCP / IC50 of reference peptide) (HLA-DRB4) [ratio]
SLCYSILKAKNAGMS (Synthetic 15-mer (>80% purity, Activotec) derived from human TERT; also called UCP1041; p1041) [UCP4 (TERT1041-1055)] | 154 | 34 | 8 | 3 | 0.3 | 0.5 | 
KSVWSKLQSIGIRQH (Synthetic 15-mer (>80% purity, Activotec) derived from human TERT; also called UCP578; p578) [UCP2 (TERT578-592)] | 154 | 112 | 1 | 8 | 0.2 | 1 | 229
PAAFRALVAQCLVCV (Synthetic 15-mer (>80% purity, Activotec) derived from human TERT; also called UCP44; p44) [UCP1 (TERT44-58)] | 30 | 50 | 3 | 4 | 3 | 1 | 4
